These results are taken from patent US8252981B2 (Athenix Corp., priority 2006, dated 2012).

Sequences and labels used below:
B1: GRG23(L3P1.B20): GRG23 variant, SEQ ID NO:21; mutation at V206 (protein)
chain: METDRLVIPGSKSITNRALLLAAAAKGTSVLVRPLVSADTSAFKTAIQALGANVSADGDNWVVEGLGQAPHLDADIWCEDAGTVARFLPPFVAAGQGKFTVDGSEQLRRRPLRPLVDGIRHLGARVSSEQLPLTIEASGLAGGEYEIEAHQSSQFASGLIMAAPYARQGLRVRIPNPVSQPYLTMTLRMMRDFGLETSTDGATVSIPPGRYTARRYEIEPDASTASYFAAASAVSGRSFEFQGLGTDSIQGDTSFFNVLGRLGAEVHWAPNSVTISGPERLNGDIEVDMGEISDTFMTLAAIAPLADGPITITNIGHARLKESDRISAMETNLRTLGVQTDVGHDWMRIYPSTPHGGRVNCHRDHRIAMAFSILGLRVDGITLDDPQCVGKTFPGFFDYLGRLFPEKALTLPG
modifications: GRG23(L3P1.B20)
notes: mutation at V206
B2: grg23(L3P1B3): GRG23 variant, SEQ ID NO:23; D75→H, E217→K (protein)
chain: B1 chain with D75H, I206V, E217K
modifications: GRG23(L3P1.B3)
notes: D75→H, E217→K
B3: GRG23(L3P1.F18): GRG23 variant, SEQ ID NO:25; T274→I (protein)
chain: B1 chain with I206V, T274I
modifications: GRG23(L3P1.F18)
notes: T274→I
B4: GRG23(L3P1.023): GRG23 variant, SEQ ID NO:27; R5→H (protein)
chain: B1 chain with R5H, I206V
modifications: GRG23(L3P1.O23)
notes: R5→H

Residue numbers refer to the chain shown, from its start.

For the assay, the system named is BL21*DE3 competent E. coli cells. The experiment in a line: Selection for glyphosate resistance on M63+ plates containing 150 mM glyphosate. Format: cell-based. The conditions noted are these: E. coli clones expressing the variant, 150 mM glyphosate plates. How it is done:
The mutagenized syngrg23 libraries were transformed into E. coli strain BL21*DE3 star (Invitrogen). Following transformation, individual colonies were plated on 1× M63 medium containing 150 mM glyphosate to select for clones that had retained enzymatic activity and growth tolerance.
Library ligations were transformed into BL21*DE3 competent E. coli cells (Invitrogen). The transformations were performed according to the manufacturer's instructions with the following modifications. After incubation for 1 hour at 37° C. in SOC medium, the cells were sedimented by centrifugation (5 minutes, 1000×g, 4° C.). The cells were washed with 1 ml M63+, centrifuged again, and the supernatant decanted. The cells were washed a second time with 1 ml M63+ and resuspended in 200 ul M63+.
The plates were incubated for 36 hours at 37° C.
Colonies identified on glyphosate plates were pinned into 96-well blocks containing LB medium and were grown to an O.D. of about 0.6. IPTG was then added (0.5 mM) and the blocks were incubated overnight at 20° C. to induce protein expression. Protein extracts were prepared from the cell pellets using POP culture reagent (Novagen) and Lysonase (Novagen), and the enzymatic activity in the crude lysates was measured after heating the extracts for 30 min at 37° C.
With B1, the “glyphosate resistance (in words)” value is “retained glyphosate resistance”.
To B2 belongs “retained glyphosate resistance”.
To B3 belongs “retained glyphosate resistance”; to B4, “retained glyphosate resistance”.
